Publication PMC7612645

Legend:
[1] = molecular target: HBV core protein (Cp) dimer (Hepatitis B virus) (UniProt P03146); test: NCP reassembly, SEC-MALLS with RNase A challenge; settings: 20 mM HEPES pH 7.5, 250 mM NaCl, 5 mM DTT, DMSO +/- compound, <0.15 M GuHCl, room temperature; Cp titrated in 10 steps to 1.2 uM
[2] = molecular target: HBV core protein (Cp) dimer (Hepatitis B virus) (UniProt P03146); test: fluorescence anisotropy; settings: 20 mM HEPES pH 7.5, 250 mM NaCl, 5 mM DTT, DMSO +/- compound, <0.15 M GuHCl, room temperature; Cp titrated in 10 steps to 1.2 uM; scale: normalized anisotropy change vs no compound

HBV core protein (Cp) dimer (Hepatitis B virus), sequence (P03146 whole entry): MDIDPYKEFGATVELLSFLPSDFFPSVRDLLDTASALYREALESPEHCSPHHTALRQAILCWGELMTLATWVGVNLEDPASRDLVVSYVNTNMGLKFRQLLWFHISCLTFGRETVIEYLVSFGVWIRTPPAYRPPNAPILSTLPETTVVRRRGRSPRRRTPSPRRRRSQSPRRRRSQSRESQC

Row | Substance | binding signal (% NCP yield vs control) [1] | binding signal [2]
1 | HBV gRNA transcript | 90 | 
2 | HBV gRNA transcript, dye-labelled |  | 0.477
